Data: patent US20100280227A1 (Genentech, published 2010)
Residue numbers refer to the chain shown, from its start.

T1: mouse BR3 extracellular domain (mouse, UniProt Q9D8D0 1-64)
T1 construct: also called mBR3-ECD; mBR-ECD
T1 sequence: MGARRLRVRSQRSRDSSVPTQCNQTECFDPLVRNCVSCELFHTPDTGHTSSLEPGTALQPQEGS

B1: Hu9.1-88 IgG (antibody, V domains shown)
VH: EVQLVESGGGLVQPGGSLRLSCAASGFPVTGSYVSWVRQAPGKGLEWVGFIRDKANGYTTEYNPSVKGRFTISRDTSKNTLYLQMNSLRAEDTAVYYCAQVRRALDYWGQGTLVTVSS
VL: DIQMTQSPSSLSASVGDRVTITCKSSQSLLYSSNQNNYLAWYQQKPGKAPKLLIYWASTRESGVPSRFSGSGSGTDFTLTISSLQPEDFATYYCQQYYTYPYTFGQGTKVEIKR
notes: humanized IgG; also called h9.1-88
B2: chimeric 2.1 IgG (antibody, V domains shown)
VH: EVQLQESGPSLVKPSQTLSLTCSVTGDSITRGYWNWIRKFPGNKLEFMGYINYSGTTYYNPSLKSRISITRDTSKNQYYLQLNSVTTEDTATYYCATPHTYGAMDYWGQGTTLTVSA
VL: DIVLTQSPVSLAVSLGQRATISCRASESVDDYGISFMHWYQQKPGQPPKLLIYRASDLESGIPARFSGSGSGTDFTLTINPVETDDVAIYYCQQTSKDPWTFGGGT
notes: also called Ch 2.1 IgG; ch 2.1
B3: V3-46s IgG (antibody, V domains shown)
VH: EVQLVESGGGLVQPGGSLRLSCAASGFTISSSSIHWVRQAPGKGLEWVAWVLPSVGFTDYADSVKGRFTISADTSKNTAYLQMNSLRAEDTAVYYCARRVCYNRLGVCAGGMDYWGQGTLVTVSS
VL: DIQMTQSPSSLSASVGDRVTITCRASQDVSTAVAWYQQKPGKAPKLLIYSASFLYSGVPSRFSGSGSGTDFTLTISSLQPEDFATYYCQQSQISPPTFGQGTKVEIKR
notes: also called hV3-46S; HuV3-46s-IgG
B4: h9.1-70 IgG (antibody, V domains shown)
VH: B1 VH with G26D, F27S, V29R, T30S, S32Y, V34I, R74A, L81A
VL: B1 VL with T59I, E61D
B5: h9.1-73 IgG (antibody, V domains shown)
VH: B1 VH with F27L, V29M, T30A, S32F, V34T, R74A, L81A
VL: B1 VL with S58Q, T59H, R60L, E61D
B6: Hu2.1-30 IgG (antibody, V domains shown)
VH: EVQLVESGGGLVQPGGSLRLSCAASGDSITRGYWNWVRQAPGKGLEWVGYINYSGTTYYNPSLKSRFTISRDTSKNTFYLQMNSLRAEDTAVYYCANLNYYGAMDYWGQGTLVTVSS
VL: DIQMTQSPSSLSASVGDRVTITCRASESVDDYGISFMHWYQQKPGKAPKLLIYRASDLESGVPSRFSGSGSGTDFTLTISSLQPEDFATYYCQQTSKDPWTFGQGTKVEIKR
notes: humanized IgG; also called h2.1-30
B7: Hu2.1-94 IgG (antibody, V domains shown)
VH: B6 VH with F78L, N97T, L98S, N99H, Y100N, Y101T, A103E
VL: B6 VL
notes: humanized IgG; also called h2.1-94
B8: Hu2.1-46 IgG (antibody, V domains shown)
VH: B6 VH with L98S, Y100F
VL: B6 VL
notes: humanized IgG; also called h2.1-46
B9: V3-46s-9 Fab (Fab, V domains shown)
VH: B3 VH
VL: DIQMTQSPSSLSASVGDRVTITCRASEDISTAVAWYQQKPGKAPKLLIFAASYLYSGVPSRFSGSGSGTDFTLTISSLQPEDFATYYCQQSQISPPTFGQGTKVEIK
notes: soluble Fab in SPR; also called V46s-9
B10: V3-46s-37 phage clone (Fab, V domains shown)
VH: B3 VH
VL: B9 VL with E27Q, I29V, S30A, Y53F
B11: V3-46s-40 phage clone (Fab, V domains shown)
VH: B3 VH
VL: B9 VL with D28E, S30A, A32S, A50S, I93V
B12: V3-46s-45 phage clone (Fab, V domains shown)
VH: B3 VH
VL: B9 VL with I29V, T31S, Y55F, Q90H, I93V
B13: chimeric 11G9 IgG (antibody, V domains shown)
VH: DVQLQESGPSLVKPSQTLSLTCSVTGDSITSGYWNWIRKFPGNKLEYMGYISYSGSTYYNPSLKSRISITRDTSKNQFYLQLLSVTTEDTATYYCAGLDGLYWYFDVWGAGTLVTVSS
VL: DIVMTQTPLSLPVSLGDQASISCRSSQSLVHSNGNTYLHWYLQKPGQSPKLLIYKVSNRFSGVPDRFSGSGSGTDFTLKISRVEAEDLGVYFCSQSTHVPPFTFGSGT
notes: also called Ch 11G9 IgG
B14: chimeric 9.1 IgG (antibody, V domains shown)
VH: EVKLVESGGGLVQPGGSLRLSCAISGFTVTAYYMSWVRQPPGKALEWLGFIRDKANGYTTEYNPSVKGRFTISRDNSQSIFYLQMNTLRAEDSATYYCAQVRRALDYWGQGTTVTVSA
VL: DIVMSQSPSSLAVSVGEKVTMSCKSSQSLLYSSNQNNYLAWYQQKPGQSPKLLIYWASTRESGVPDRFTGSGSGTDFTLTISSVKAEDLAVYYCQQYYTYPYTFGGGT
notes: also called Ch 9.1 IgG; ch 9.1
B15: mV3-46 IgG (antibody, V domains shown)
VH: B3 VH with S31N
VL: B3 VL
notes: IgG on chip
B16: mV3-46s IgG (antibody, V domains shown)
VH: B3 VH
VL: B3 VL
notes: IgG on chip
B17: V3-1h (antibody, human IgG1, V domains shown)
VH: B3 VH with S32N, V51I, L52T, V55D, F57N
VL: B3 VL with Q92R, S94T
B18: V3-46s-42 Fab (Fab, V domains shown)
VH: B3 VH
VL: B9 VL with F49Y, Y53F
notes: soluble Fab in SPR; also called V46s-42

What follows are binders tested against T2, human BR3 expressed on cells (human, UniProt Q96RJ3 1-184) (assay: BJAB cells, competition with biotin-BAFF).
T2 construct: whole, on cells; also called BR3 on BJAB cells; cell surface BR3
Protocol: (§1) The diluted samples were added to the pelleted BJAB cells in 96 well plates as described above. After 45 min incubation on ice, the cells were washed twice with 200 μl cold assay buffer, and streptavidin-HRP (AMDEX, Amersham Biosciences, Piscataway, N.J.) diluted 1/5,000 in assay buffer was added (100 μl/well). The plates were incubated for a final 45 min on ice. After washing twice with cold assay buffer, color was developed using TMB, the reaction was stopped with H₃PO₄, and the plates were read as described above.

Row | Binder | IC50
1 | B1 | 0.6 nM
2 | B2 | 0.2 nM
3 | B3 | 1.9 nM
4 | B4 | 0.82 nM
5 | B5 | 1.78 nM
6 | B6 | 0.17 nM
7 | B7 | 5.1 nM
8 | B8 | 0.19 nM

Each binder was assayed against T3, human BR3 extracellular domain (human, UniProt Q96RJ3 1-61) (assay: phage competition ELISA).
T3 construct: biotinylated where used as tracer; also called hBR3-ECD; BR3-ECD

Row | Binder | IC50
9 | B9 | 0.053 nM
10 | B10 | 0.131 nM
11 | B11 | 0.164 nM
12 | B12 | 0.121 nM

Each binder was assayed against T1, mouse BR3 extracellular domain (assay: phage competition ELISA).

Row | Binder | IC50
13 | B9 | 0.182 nM
14 | B10 | 0.32 nM
15 | B11 | 0.53 nM
16 | B12 | 0.37 nM

What follows are binders tested against T3, human BR3 extracellular domain (assay: SPR, BR3 ECD on chip;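 note: Anti-BR3 antibodies passed over the chip at high flow in PBS with 0.05% polysorbate 20, on and off rates fitted together globally to a 1:1 binding model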).
Protocol: (§2) After coupling, unoccupied sites on the chip were blocked by injecting 20 μl of 1M ethanolamine, pH 8.5. The running buffer was PBS containing 0.05% polysorbate 20. […] The binding surface was regenerated by injecting 20-30 μl of 10 mM glycine.HCl (pH 1.5). […] Data were analyzed using a 1:1 binding model using global fitting. The association and dissociation rate constants were fitted simultaneously (BIAevaluation software).
(§3) A high flow rate was used in order to minimize mass transport effects.

Row | Binder | Kd | koff | kon
17 | B1 | 0.025 nM | 4.9e-05 s⁻¹ | 1.94e+06 M⁻¹ s⁻¹
18 | B13 | 0.34 nM | 0.000549 s⁻¹ | 1.64e+06 M⁻¹ s⁻¹
19 | B2 | 0.04 nM | 6.8e-05 s⁻¹ | 1.68e+06 M⁻¹ s⁻¹
20 | B6 | 0.017 nM | 4e-05 s⁻¹ | 2.41e+06 M⁻¹ s⁻¹
21 | B7 | 0.037 nM | 6.6e-05 s⁻¹ | 1.77e+06 M⁻¹ s⁻¹
22 | B8 | 0.02 nM | 4.5e-05 s⁻¹ | 2.2e+06 M⁻¹ s⁻¹

What follows are binders tested against T4, variant human BR3-Fc fusion (assay: SPR, vBR3-Fc on chip;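 note: Anti-BR3 antibodies passed over chip-bound BR3-Fc in PBS with 0.05% polysorbate 20, on and off rates fitted together globally to a 1:1 binding model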).
T4 construct: produced in CHO cells; also called vBR3-Fc; vhBR3-Fc
Protocol: as §2, §3

Row | Binder | Kd | koff | kon
23 | B1 | 0.2 nM | 0.000262 s⁻¹ | 1.3e+06 M⁻¹ s⁻¹
24 | B13 | 2.78 nM | 0.00218 s⁻¹ | 780000 M⁻¹ s⁻¹
25 | B2 | 0.04 nM | 3.8e-05 s⁻¹ | 980000 M⁻¹ s⁻¹
26 | B14 | 0.17 nM | – | –
27 | B7 | 0.253 nM | 0.000121 s⁻¹ | 477000 M⁻¹ s⁻¹
28 | B8 | 0.041 nM | 3.96e-05 s⁻¹ | 978000 M⁻¹ s⁻¹

Each binder was assayed against T2, human BR3 expressed on cells (assay: BJAB cells, direct binding).
Protocol: Direct and competitive binding assays were performed as follows. For the direct binding assay, IgG antibody samples were serially diluted in cold assay buffer to concentrations ranging between 300-0.02 nM. Samples (100 μl) were added to the pelleted cells, and the plates were incubated for 45 min on ice. An additional 100 μl assay buffer was then added to each well, and the plates were centrifuged at 1200 rpm for 5 min at 4° C. After carefully aspirating the supernatant, the cells were washed two additional times with 200 μl assay buffer. An anti-mouse IgG Fc-HRP or goat anti-human IgG Fc-HRP, as appropriate, was diluted 1/10,000 in cold assay buffer was added (100 μl/well, Jackson ImmunoResearch, West Grove, Pa.), and the plates were incubated on ice for 45 min. Following two washes with 200 μl cold assay buffer, tetramethyl benzidine (TMB, Kirkegaard & Perry Laboratories, Gaithersburg, Md.) was added, and color was allowed to develop for 10 min. One hundred microliters 1 M H₃PO₄ was added to stop the reaction. The plates were then read on a microplate reader at 450 nm with a 620 nm reference. In the direct binding assay, the indicated concentrations of mAbs were added to BJAB cells and bound mAb was detected.

Row | Binder | EC50
29 | B1 | 0.43 nM
30 | B2 | 0.14 nM
31 | B3 | 1.8 nM
32 | B14 | 0.36 nM
33 | B4 | 0.33 nM
34 | B5 | 0.79 nM
35 | B6 | 0.11 nM
36 | B8 | 0.11 nM

The binders below were run against T3, human BR3 extracellular domain (assay: SPR, IgG on chip, BR3 ECD in solution).

Row | Binder | Kd | koff | kon
37 | B15 | 0.24 nM | 7.31e-05 s⁻¹ | 300000 M⁻¹ s⁻¹
38 | B16 | 0.02 nM | 3.18e-05 s⁻¹ | 1.57e+06 M⁻¹ s⁻¹
39 | B1 | 0.911 nM | 0.000926 s⁻¹ | 1.02e+06 M⁻¹ s⁻¹
40 | B6 | 0.02 nM | 7.6e-05 s⁻¹ | 3.57e+06 M⁻¹ s⁻¹
41 | B8 | 0.193 nM | 0.000432 s⁻¹ | 2.24e+06 M⁻¹ s⁻¹

Each binder was assayed against T1, mouse BR3 extracellular domain (assay: SPR, IgG on chip, BR3 ECD in solution).

Row | Binder | Kd | koff | kon
42 | B15 | 1.17 nM | 0.00014 s⁻¹ | 119000 M⁻¹ s⁻¹
43 | B16 | 0.32 nM | 9.51e-05 s⁻¹ | 298000 M⁻¹ s⁻¹

Target: T2, human BR3 expressed on cells
Assay: BJAB cells, competition with biotin-BAFF
Remark: another data set of the same source
Protocol: as §1

Row | Binder | IC50
44 | B13 | 0.45 nM
45 | B2 | 0.23 nM
46 | B17 | 5.97 nM

What follows are binders tested against T3, human BR3 extracellular domain (assay: SPR BIAcore-3000, Fab).
Description: (§4) Surface plasmon resonance assays on a BIAcore™-3000 were used to determine the affinity of the Fabs.

Row | Binder | Kd | koff | kon
47 | B9 | 0.09 nM | 1.6e-05 s⁻¹ | 160000 M⁻¹ s⁻¹
48 | B18 | 0.026 nM | 1.4e-05 s⁻¹ | 617000 M⁻¹ s⁻¹

Each binder was assayed against T1, mouse BR3 extracellular domain (assay: SPR BIAcore-3000, Fab).
Description: as §4

Row | Binder | Kd | koff | kon
49 | B9 | 0.32 nM | 0.00015 s⁻¹ | 470000 M⁻¹ s⁻¹
50 | B18 | 0.39 nM | 0.00029 s⁻¹ | 740000 M⁻¹ s⁻¹
